Reference: the supplement of paper PMC9170038

What follows are sequences tested on K4 kissing-loop RNA reporter (assay: apparent KD of K4 kissing-loop reporter; higher = weaker reporter binding). Details: Eterna round: R107; input ligand: none.
Procedure: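 RNA-MaP round R107: designed RNA switches with theophylline, tryptophan, arginine or FMN aptamers are transcribed on-chip within common flanks. They are titrated with a labelled K4 kissing-loop RNA reporter in RNA-MaP buffer (100 mM Tris pH 7.5, 80 mM KCl, 4 mM MgCl2), without ligand or with the indicated ligand. Median apparent KD per design.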
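Further: bound reporter read as fluorescence of individual clusters on recovered sequencing chips by microscopy, with normalized cluster intensities fitted with a binding model.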

| Sequence | apparent KD of K4 kissing-loop reporter |
| --- | --- |
| GCCGUACGCAUGGAUACCAGCAUCAGAUCUUAGUGAUGUUAAGUCGAGAGUUGGUCAAAAUGCCCUUGGCAGCCAUGCGUACGGC | 105 nM |
| UGUCAUUGGUCGGCCGCCACUAGAAGGUCAAAGACCAAAGAGUGAUGUUCUUAGACGAAAGUCACUAGGACCGGGACCGAUGACU [TrypBS 7 #SwitchBubble #K4Middle] | 971 nM |
| UGUCAUUGGUCUGAUACCAGCUGAUCGGAAACGAUCUUGCUGGAGUGAUGUUCCAGGAAAAGCCCUUGGCAGCAGACCGAUGACU [TheoBS 10 #SwitchBubble #StaticStem] | 1210 nM |
| AUGACAGAAUCGGCCGCCACUCAUUGUCCUGUGGACAUUCUAGGAUUAGUGAUGUUUUUCCCAUCGAGGACCGGGAUACAGAUUG [theeternabot_sameState_KL_Trp_B_6] | 467 nM |
| GGUCUGCCGCAGUGAUGUUGCUGGCAUACACGAGGACCGGUACGGCCGCCACUCGAUGCUCCAAGAACCACCAAUCUUCGGUAUC [theeternabot_sameState_KL_Trp_A_48] | 229 nM |
| UGACUGGACUGAAGGAGCGCUGAAGGAGCGUAAGUAGUGAUGUUGCUUACAGGUAGGUCGCAGCAGGUAGGUCGCAGUCUAGUCU | 56.6 nM |
| AGGAGCGUGCGAUGUAAAUCGCACGCUCCACGAGGACCGGUACGGCCGCCACUCGCUCGUGCAGAGUGAUGUUCUGCCGGCGAAU [#2 Same State - Tryptophan A Attempt #24 (HarryS)] | 270 nM |
| CUUACCCAUCGGAUGGAUCAACUGCACACGAAGGAUAUACACACGGGUAGAAGGUCGGGAUUCCAGUGAUGUUGGAUGGUACGAC [theeternabot_exclusion_KL_FMN_A_29] | 91.3 nM |
| CGACUAUUUCGAUAGUCGAUAGACACGGAAGGAGCGGGAUUCGUCCCAGGUAGGUCGCCGUGAAGUUGAGUGAUGUUCAACGUGU [Arg A SS t13] | 155 nM |
| UGUCAUUGGUCGGCCGCCACUAGACGGACAUAAAGUCUGUCAUAAAGAGUGAUGUUCUUAAAUAAUAGGACCGGGACCGAUGACU [TrypBS 29 #SwitchBubble #StaticStem] | 872 nM |
| CUCGACACGGGAAGGAGCGGUUGCGUGUGCCAGUGAUGUUGGAUCAGCAGACUGCCCGGUAGCCAGGUAGGUCGCCUGUGCUGAG [Esbeescexe] | 162 nM |
| AAGUGAUGUUGUAGUGAUGUUGUGAUGUUGCAGGAUAUAUAGUGAUGUAGAAGGGUAUGUUCAGUUUUUUUUUUUGAGUGUUGAU [szxmullin] | 62.8 nM |
| GGAUCCACCAGUGAUGUUGGAGAAAACUCUAAGGAUAUGACGAAAGUCAGAAGGUGGUAGACUGGGCAAAGUCCGGUCGGAUCCA [FmnA10 U30+G66] | 378 nM |
| GGAUAGGAUAGAGGAUAUGGUAUAGGCAAGAAUAACUUGUCAUGUAAAUCCAUGAGGAGUGAUGUUCCAGAAGGCUGUCCUAUCG [MatMod 9 - Jieux - Exclusion - FMN B] | 231 nM |
| UCGGGAGGCCGAAGGAGCGCCGCCAGUGAUGUUGGGAGUUAGAUACCAGUGAUGUUGGGCCGGCAGGUAGGUCGCGGCCGCGGAU [Exclusion Arginine B Gf 18] | 147 nM |
| AGUGAUGUUGAGUUAUCUUAGUGAAGUGAUCGAGGACCGGUACGGCCGCCACUCGAGUGAUGAGUGAGUGAUGUUUGUUUAGGGA [llkmullin] | 897 nM |
| AGUGAUGUUUCUUUUAAGAGUGAUGUUUUUCGAGGACCGGUACGGCCGCCACUCGAGUGAUGAGUGCGUCGUUGUGGUGAUUAGU [#13 K4 Tryptophan A Exclusion] | 463 nM |
| GGCAGUGAUGUUGCCAGUGGCAGAUGCGAAGGAGCGCAGUGAGAUGCAGGUAGGUCGCGCAUUGAAAUUGCUGUCACUAAAAUGC [#2] | 371 nM |
| GAAAGAAAGAAUGAUACCAGACACCCGAGUGAUGUUCGGAGCAGAGUGAUGUUCUUAUAAGUCCCUUGGCAGCAUAAAAGAAAAG [whbob_SS_Theo_B_sa82] | 196 nM |
| AAGUGUGUGGCGGCCGCCACUAGAAUCCAGUGAUGUUGGAGUUAUCAAAUAAAUGAUAAUCAACAUAGGACCGGGCCAUAUAGAA [Same State - Tryptophan B (Freestyle 4)] | 626 nM |

Same assay, conditions: Eterna round: R107; input ligand: theophylline 20 uM

| Sequence | apparent KD of K4 kissing-loop reporter |
| --- | --- |
| GCCGUAGAUUGAAGGAGCGGACAGAUACGGGAAUCCAGUGAUGUUGGAAGGUAACUACUAGUCCAGGUAGGUCGCAAUCUACGGC | 146 nM |
| AGAUCUGUAACAGAUACCAGAGGACGAUGAUCGAACAGUGAUGUUAUCUGUUAGUCGUCGCUCCCUUGGCAGCUGUUACAGAUCA [Omei KL Theo B SS B v4] | 72.1 nM |
| AGUGUUAGGUUAGAUACCAGCCGUCCGUGGAUAACCCUCGGACCGCCAGUGAUGUUGGCAGGCCCUUGGCAGCUAACAGAACAGA [Beriisa] | 152 nM |
| GCAGUGAUGUUGCGGAUGUACAGUGGAGUGCGAGGACCGGUACGGCCGCCACUCGUACAGAACAAGCUAAUACAUCGAUAGGUGA [XI] | 409 nM |
| GGAGCUACCUGGGAUACCAGUCGGAGUCUCAGAGCUCGGAGUGAUGUUCUGGGAUGUUUCGGCCCUUGGCAGCUCUGGGACUCCU [#2 Exclusion - Theophylline B Attempt #18 (HarryS)] | 763 nM |
| AACGCUGUGAAUAACACAGCGAAUAAUUCGCGAGGACCGGUACGGCCGCCACUCGCUAACUGCGAGUGAUGUUCGAUAAUAAAAU [Mat - Mod of OpenEnded 3 - D12] | 237 nM |
| GAAGGUCAAAGACCUUCGUGCACAACUGAUACCAGUCGCGAAAGCGACCCUUGGCAGCAGGGCAGUGAUGUUGCCAGUGCACAAA [Omei KL Theo A SS A v3] | 124 nM |
| UGUGUUGUUUUGAUGUUUGUUGUAAGGUGGCAGGAUAUCGUAGAGGCGAGAAGGGCUUUUUUGCGUUAUGAGUGAUGUUUGUAGG [exeerzmullin] | 471 nM |
| GCAGCACCGAGUGAUGUUUGGUUCAGCGUGAAGGAUAUAAUAUCUGUUAGAAGGUCAAGUGAGAUUGUCGCGAAUCAGUUUUGAU [theeternabot_exclusion_KL_FMN_A_41] | 332 nM |
| AAUAGAUCAUUAUAGUGAUAAAUGCCUGAUACCAGUGAGAGAUGGCACCCUUGGCAGCAGAGAUGAGUGAUGUUCAGACUGUAAA [theeternabot_sameState_KL_Theo_A_11] | 123 nM |
| UACUAGUGAAACUAGUAGGUGCUAGGUGAAGGAGCGAUCGAAAGAUCAGGUAGGUCGCACCUUCCUGAGUGAUGUUCAGGUAAUA [KL-SSArg-A3] | 59.1 nM |
| CAUGGUGCUCGCCAGUUGUGCGAACGGUGGGAGGAUAUGUCGCGAGACAGAAGGCCCAGUGAUGUUGGGCAGGCUCGUAGAUCGA [Mazadi] | 165 nM |
| AGUGAUAUAUGAGGAUAUGGGUUAAUUAGUGAGUUAUUUUUAGUGUUGUUUGAUUAGUGAUGUUAUUUAGAAGGCGUGAGUGAUG [awwswmjmullin] | 130 nM |
| AUAUUAACUCAGUGAUGUUGAGUUGACGAAGGAGCGCUAGAGAUAGCAGGUAGGUCGCGUCAAUUUAAUGGAGACUAGCUUUACG [Arg A Ex t4] | 351 nM |
| UUGGGCAGUGAUGUUGGCUAGGCCACAGAUACCAGACGCAUGCACGUCCCUUGGCAGCUGCGAAAGUUAGACUUGUAAUGAUAGU [theeternabot_sameState_KL_Theo_A_45] | 338 nM |
| AGGGACUCUUCGGAGUCCCGGUUAAGGGAUACCAGUGAUGUUGGUCACCCUUGGCAGCCCAGAAACCAAGCCACCAAAGGUGGCA [Omei KL Theo A Exc A v2] | 211 nM |
| UAUCUUUGCUGAAGGAGCGAGCAUGUUGGAGUGAUGUUCCGUGCGAGUGAUGUUCGCAUAGCUCAGGUAGGUCGCAGUGGGAGGA [KL-SSArg B29] | 157 nM |
| AGAAGAUAUCAAGAUACCAGCUCCCGGCCCAAAACCCAGAUACACGAGUGAUGUUCGUUCAGCCCUUGGCAGCUUGCCUAGUUCU [theeternabot_sameState_KL_Theo_B_6] | 163 nM |
| UGUCAUGGAAACAUGAACGUUGAUGUUCGACGAGGACCGGUACGGCCGCCACUCGAGUAAUAGUCAGUGAUGUUGACUAGUCUAA [KL-SSTryp-A form1] | 112 nM |
| CAACCGUAACACGAUACCAGCCUAGAAGCCAGUGAUGUUGGCCUUUUUUCGGAAAUGAAAGGCCCUUGGCAGCGUGGAUGAACUG [Dibibiquus] | 462 nM |
| GCCGUACGCAUGGAUACCAGCAUCAGAUCUUAGUGAUGUUAAGUCGAGAGUUGGUCAAAAUGCCCUUGGCAGCCAUGCGUACGGC | 99.5 nM |
| UGUCAUUGGUCGGCCGCCACUAGAAGGUCAAAGACCAAAGAGUGAUGUUCUUAGACGAAAGUCACUAGGACCGGGACCGAUGACU [TrypBS 7 #SwitchBubble #K4Middle] | 746 nM |
| UGUCAUUGGUCUGAUACCAGCUGAUCGGAAACGAUCUUGCUGGAGUGAUGUUCCAGGAAAAGCCCUUGGCAGCAGACCGAUGACU [TheoBS 10 #SwitchBubble #StaticStem] | 1100 nM |
| AUGACAGAAUCGGCCGCCACUCAUUGUCCUGUGGACAUUCUAGGAUUAGUGAUGUUUUUCCCAUCGAGGACCGGGAUACAGAUUG [theeternabot_sameState_KL_Trp_B_6] | 398 nM |
| GGUCUGCCGCAGUGAUGUUGCUGGCAUACACGAGGACCGGUACGGCCGCCACUCGAUGCUCCAAGAACCACCAAUCUUCGGUAUC [theeternabot_sameState_KL_Trp_A_48] | 236 nM |
| UGACUGGACUGAAGGAGCGCUGAAGGAGCGUAAGUAGUGAUGUUGCUUACAGGUAGGUCGCAGCAGGUAGGUCGCAGUCUAGUCU | 44.3 nM |
| AGGAGCGUGCGAUGUAAAUCGCACGCUCCACGAGGACCGGUACGGCCGCCACUCGCUCGUGCAGAGUGAUGUUCUGCCGGCGAAU [#2 Same State - Tryptophan A Attempt #24 (HarryS)] | 248 nM |
| CUUACCCAUCGGAUGGAUCAACUGCACACGAAGGAUAUACACACGGGUAGAAGGUCGGGAUUCCAGUGAUGUUGGAUGGUACGAC [theeternabot_exclusion_KL_FMN_A_29] | 98.7 nM |
| CGACUAUUUCGAUAGUCGAUAGACACGGAAGGAGCGGGAUUCGUCCCAGGUAGGUCGCCGUGAAGUUGAGUGAUGUUCAACGUGU [Arg A SS t13] | 170 nM |
| UGUCAUUGGUCGGCCGCCACUAGACGGACAUAAAGUCUGUCAUAAAGAGUGAUGUUCUUAAAUAAUAGGACCGGGACCGAUGACU [TrypBS 29 #SwitchBubble #StaticStem] | 611 nM |
